# Results taken from the supplement of paper PMC10126150.
# ± gives the standard deviation of the averaged measurements.
# Test system: ATP
# Assay: switch fluorescence ratio, 500 uM ATP over buffer (Cy3 cluster intensity, sum of 5 cycles each) (fold (ratio)); higher = stronger signal-on switching upon ATP binding; sequences stand for … in TCGTCGGCAGCGTCAGATGTGTATAAGAGACAGTTTTTTTTTTTTTTTTTTTTTTTTT…TC
# Conditions: aptamer strand: ATP DNA aptamer (quencher-CACCTGGGGGAGTATTGCGGAGGAAGG + anchor), 100 nM annealed; ATP concentration: 500 uM
# Outline: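 Five buffer/ATP imaging cycles were run on Cy3-labelled switching-strand clusters on a modified Illumina MiSeq flow-cell, with NaOH stripping and re-annealing between cycles. In each cycle, clusters annealed to 100 nM quencher-labelled ATP aptamer were imaged in selection buffer, then after 15 min with 500 uM ATP at 22 °C. Per cluster, the fluorescence ratio is summed target-cycle over summed buffer-cycle Cy3 intensity, averaged per switch-domain sequence. Only clusters within 100-1000 RFU were kept.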
# 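Also: ATP exposure 15 min at 22 °C before imaging.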
row,Sequence,switch fluorescence ratio
1,AATAAGGGA,1.03 ± 0.1
2,TTGAAGAAAG,0.976 ± 0.021
3,TTTAAAGCGG,1.01 ± 0.026
4,TATAGGCAGG,0.9772 ± 0.008
5,CTAATTAAGT,0.973 ± 0.028
6,AGTGTCTATT,0.981 ± 0.0055
7,TTATAAGGGG,0.979 ± 0.04
8,TAACACAGTC,1.04 ± 0.054
9,TTGTATTTTG,0.985 ± 0.038
10,CGGGCTTTGG,1.01 ± 0.035
11,AGAGTTGAGA,1.0102 ± 0.001
12,TCAGGGAGGG,1.06 ± 0.15
13,GCTGTTCAAG,1 ± 0.026
14,TGTTGGTGTC,0.987 ± 0.07
15,GCGGGGGTTG,0.978 ± 0.039
16,GGTTAACTGT,1.01 ± 0.026
17,ATTGAGCTGT,0.9812 ± 0.0062
18,CGGGAATCGA,1 ± 0.012
19,AAGGGGGACA,0.992 ± 0.032
20,TGGCTGGGGG,1.09 ± 0.1
21,GTTTCCAGTT,1.03 ± 0.023
22,ATGTGTTTGC,0.99 ± 0.053

row,Sequence,switch fluorescence ratio
1,AGTTGGCGGA,0.999 ± 0.024
2,GATGCGAAAT,1.06 ± 0.023
3,AGTGGAGACG,1.03 ± 0.012
4,GGATGAAGGA,0.978 ± 0.038
5,GTAAAAGGGT,1 ± 0.02
6,GCTGATATAA,1.01 ± 0.019
7,TAAAAGGGTC,0.942 ± 0.085
8,ATTATAAGGG,1.02 ± 0.056
9,TTTTAATTTG,0.994 ± 0.04
10,AGCCAGAAGT,0.991 ± 0.022
11,ATTTTATGCC,1.01 ± 0.031
12,AGTTTAGGGT,1.03 ± 0.054
13,CGGGTGGTGC,1.014 ± 0.0086
14,AATTCAACAC,1.05 ± 0.038
15,AAGCTCGTGC,0.973 ± 0.089
16,AACTCTTAAG,1.03 ± 0.02
17,GGAGCTAGGG,1.056 ± 0.0058
18,AACGCGTGGG,1.01 ± 0.003
19,AGAATTTCAT,1.01 ± 0.0045
20,AAGGGGCTTG,0.986 ± 0.036
21,CGGGGTTTGA,1.02 ± 0.028
22,AGCGGGTTAA,1.017 ± 0.0096

row,Sequence,switch fluorescence ratio
1,TTTTCCACGA,1.3 ± 0.35
2,ACCGTATGAC,1.05 ± 0.068
3,GGAGTGGTTG,0.999 ± 0.036
4,ATAATGTTTT,1 ± 0.021
5,GGTGGGTACG,0.986 ± 0.052
6,TTGCGGGTTT,1.29 ± 0.38
7,GGTCTTGAGG,1.01 ± 0.028
8,AGGGGGTGTG,0.989 ± 0.043
9,TCTTAGGCGT,1.02 ± 0.022
10,GGGGGATGCC,1.15 ± 0.22
11,TTTATACCTT,1.07 ± 0.1
12,GCAGGAGCAT,1.03 ± 0.052
13,GCAGATTGGC,1.034 ± 0.01
14,CATAAGGGTG,1.09 ± 0.038
15,GGGTTTGAGG,0.9806 ± 0.0072
16,TTAGTACGAT,1.018 ± 0.0096
17,CGAAGTTTGG,1.02 ± 0.02
18,ATGAAGCTAG,1.06 ± 0.013
19,GAGGAGGGGT,0.989 ± 0.039
20,ATTTTTGAGG,1.02 ± 0.017
21,ATCACGTTTT,0.991 ± 0.051
22,GGCCGGCAAA,1.01 ± 0.037

row,Sequence,switch fluorescence ratio
1,TTGATCCGGG,1.1 ± 0.055
2,AGGGGCGGCG,1.01 ± 0.061
3,TGATAATGTT,0.997 ± 0.014
4,TTTGGGCCTT,1.02 ± 0.034
5,GACTGTTAAG,1.02 ± 0.017
6,TTTTCCGCTT,1.55 ± 0.69
7,CGGGAATAAA,0.993 ± 0.016
8,GCAGCGGGGC,1.28 ± 0.038
9,TCAACTTTTT,1.01 ± 0.02
10,TATCGAAGGC,0.982 ± 0.022
11,TTGTGGGTTG,1.89 ± 1.2
12,CAAAATATGC,1.14 ± 0.12
13,TCGGGGGTCA,0.9781 ± 0.0051
14,GAGTTCACGT,1.04 ± 0.013
15,GATGATCTTT,0.966 ± 0.014
16,TGTAACGCTG,0.974 ± 0.057
17,GGCTTTTTTC,0.993 ± 0.021
18,GTAAGGGGGC,0.984 ± 0.011
19,TTTTTTGGG,0.9686 ± 0.0027
